The source of these data is US6943279B1, “Amino polyol amine oxidase polynucleotides and related polypeptides and methods of use” (priority 1999, dated 2005).

A short description of data set [1]: Other enzymes tested for ability to modify AP1, radiolabeled TLC. The data set is classed as biochemical. Conditions: optimal conditions at 37° Celsius, overnight or longer. The procedure:
For analysis of APAO activity, an alternative method was used. Equal volumes of sample and ^14C-AP1 (1 mg/ml, pH 8, 50 mM sodium phosphate) were incubated at room temperature for one to six days. Analytical thin-layer chromatography was then carried out on C60 HPK silica gel plates (Whatman #4807-700; 10×10 cm; 0.2 mm thick). After application of from 0.1 to 2 μl of aqueous sample, the plates were air-dried and developed in CHCl3:MeOH:CH3COOH:H20 (55:36:8:1). Plates were then air dried, and exposed to Phosphorlmager screen (Molecular Dynamics) or autoradiographic film. A Storm™ Phosphorlmager (Molecular Dynamics) was used to scan the image produced on the screen.
Other enzymes were tested for their ability to modify AP1. All enzymes were assayed by radiolabeled TLC, as described above, under optimal conditions at 37° Celsius, overnight or longer.

A short description of data set [2]: Mutated APAO lysates from E coli, Amplex Red assay, substrate AP1. The data set is classed as biochemical. Conditions: Glyc(−) APAO lysates from E coli.
The nature of data set [3]: Site-directed mutagenesis vectors: maize transient expression, APAO or trAPAO activity. The conditions noted are these: transient expression in maize. The data set is classed as biochemical. An excerpt:
Please see the table above entitled “Table of site-directed mutagenesis vectors and enzyme assay results.” Thus, elimination of this glycosylation site is not in itself sufficient to have an active protein upon secretion. This could be due to glycosylation occurring at a second adjacent site (N201-S203). However, no active APAO was recovered when either N201 or S203 is mutated along with S206. […] This is backed up by predicted solvent accessibility numbers for these residues in the 3-D model based on the maize amine oxidase. Please see the table below entitled “Solvent accessibility for cysteine residues of truncated APAO.” The elimination of APAO glycosylation site at amino acids 204 to 206 is not sufficient to allow APAO to be secreted from the ccil and retain full enzyme activity, but elimination of this site may improve chances for obtaining a fully active enzyme once the other roadblock(s) to secretability have been resolved. In other words, elimination of this site may be necessary but not sufficient to produce active secretable APAO.

A short description of data set [4]: Mutated APAO lysates from E coli, Amplex Red assay, substrate FB1. The data set is classed as biochemical. The conditions noted are these: Glyc(−) APAO lysates from E coli.
Data set [5] in a line: Pichia expression of trAPAO, TLC assay. The data set is classed as biochemical, Pichia pastoris. Conditions: pellet suspensions and lysates; 6 days room temperature. The procedure:
The Pichia culture fluids and pellets were assayed for APAO activity as described earlier.
The 50 μl cell pellets were resuspended in 150 μl cold 5OmM Na-phosphate, pH 8.0. and divided into two fresh 500 μl tubes. One tube was kept on ice with no treatment, the pellet suspension, and one tube was used for lysis. An equal volume of 0.1 mm zirconia-silica beads was added to each tube. The tubes were BeadBeatT™ for 15 seconds then cooled on ice 5 minutes. This was repeated three times. The crude lysate was then transferred to another tube for assay or lysate suspension.
The TLC assays were performed as follows, the samples are 1) pellet suspensions; 10 μl; 2) lysate suspensions; 10 μl; 3) media controls-mixed 5 μl media with 5 μl crude fungal enzyme; 10 μl; 4) positive control-used crude fungal enzyme undiluted; 10 μl; 5) substrate control-used 50 mM Na-phosphate, pH8.0; 10 μl. […]
A positive TLC result is obtained if an additional radioactive spot appears at a lower Rf of the produced AP1 modification earlier identified as 2-OP, a deaminated product of AP1. In samples #6 and #52 (without intron) the AP1-modifying enzyme activity (conversion of AP1 to 2-OP) was detected in pellet suspensions and pellet lysates, although the majority of activity was associated with the pellet suspensions. […]

“D-amino oxidase: EC 1.4.3.3, porcine kidney: Type X”: in data set [1], the “Result (ability to modify AP1)” value is reported as “negative”.

B1: S206A: APAO mutated to alter the serine at position 206 to an alanine (SEQ ID NO: 33) (protein)
chain: MALAPSYINPPNVASPAGYSHVGVGPDGGRYVTIAGQIGQDASGVTDPAYEKQVAQAFANLRACLAAVGATSNDVTKLNYYIVDYAPSKLTAIGDGLKATFALDRLPPCTLVPVSALSSPEYLFEVDATALVPGHTTPDNVADVVVVGAGLSGLETARKVQAAGLSCLVLEAMDRVGGKTLSVQSGPGRTTINDLGAAWINDSNQAEVSRLFERFHLEGELQRTTGNSIHQAQDGTTTTAPYGDSLLSEEVASALAELLPVWSQLIEEHSLQDLKASPQAKRLDSVSFAHYCEKELNLPAVLGVANQITRALLGVEAHEISMLFLTDYIKSATGLSNIFSDKKDGGQYMRCKTGMQSICHAMSKELVPGSVHLNTPVAEIEQSASGCTVRSASGAVFRSKKVVVSLPTTLYPTLTFSPPLPAEKQALAENSILGYYSKIVFVWDKPWWREQGFSGVLQSSCDPISFARDTSIDVDRQWSITCFMVGDPGRKWSQQSKQVRQKSVWDQLRAAYENAGAQVPEPANVLEIEWSKQQYFQGAPSAVYGLNDLITLGSALRTPFKSVHFVGTETSLVWKGYMEGAIRSGQRGAAEVVASLVPAA
modifications: Glyc(-) APAO; mutation in glycosylation sites (Exophiala spinifera)
Consider B1, for which the results for the Conclusion entry in data set [2] and in data set [4] were “Partially Active” and “Slightly active”, respectively. For the same molecule, the “M H2O2/min” value in data set [2] is 0.85 μM H2O2/min; in data set [4], 0.07 μM H2O2/min. Further, in data set [3], the “Maize expression vector, APAO or trAPAO Activity (Act)” value is reported as “no detectable enzyme activity”.

B2: trAPAO: truncated, but still functional APAO (SEQ ID NO: 6) (protein, listed as Exophiala spinifera)
chain: DNVADVVVVGAGLSGLETARKVQAAGLSCLVLEAMDRVGGKTLSVQSGPGRTTINDLGAAWINDSNQSEVSRLFERFHLEGELQRTTGNSIHQAQDGTTTTAPYGDSLLSEEVASALAELLPVWSQLIEEHSLQDLKASPQAKRLDSVSFAHYCEKELNLPAVLGVANQITRALLGVEAHEISMLFLTDYIKSATGLSNIFSDKKDGGQYMRCKTGMQSICHAMSKELVPGSVHLNTPVAEIEQSASGCTVRSASGAVFRSKKVVVSLPTTLYPTLTFSPPLPAEKQALAENSILGYYSKIVFVWDKPWWREQGFSGVLQSSCDPISFARDTSIDVDRQWSITCFMVGDPGRKWSQQSKQVRQKSVWDQLRAAYENAGAQVPEPANVLEIEWSKQQYFQGAPSAVYGLNDLITLGSALRTPFKSVHFVGTETSLVWKGYMEGAIRSGQRGAAEVVASLVPAA
As for B2, the “APAO activity (conversion of AP1 to 2-OP) in Pichia transformants” value in data set [5] is “functions correctly in degrading AP1”.
